In patent US20130157929A1, “GLUCAGON ANALOGUES” (ZEALAND PHARMA A/S, published 2013):
One block for each binder: values may come before it. Starred links: 1 amine or outer side, 2 acyl side, 3 side chain; linkers in the order of their positions; H or OH if unused. Non-standard residues stand in square brackets, D forms with d. Groups on a side chain read outwards from the residue. *: point of attachment. γGlu = O=C(O)[C@H](CCC(=O)[*:2])N[*:1]; Palmitoyl = CCCCCCCCCCCCCCCC(=O)*; hPhe = N[C@@H](CCc1ccccc1)C(=O)O; Aib = CC(C)(N)C(=O)O

How the values were obtained:
[1] = molecular target: human glucagon-like peptide 1 receptor (GLP-1R) (human, UniProt P43220); experiment: cell-based or functional assay
[2] = molecular target: human glucagon receptor (glucagon-R) (human, UniProt P47871); experiment: cell-based or functional assay

B1: Compound 19 (peptide)
peptide: H-H[Aib]IGTFTSDYSKYLDSK([γGlu-Palmitoyl])AAHDFVEWLLSA-NH2
SMILES: CCCCCCCCCCCCCCCC(=O)N[C@@H](CCC(=O)NCCCC[C@H](NC(=O)[C@H](CO)NC(=O)[C@H](CC(=O)O)NC(=O)[C@H](CC(C)C)NC(=O)[C@H](Cc1ccc(O)cc1)NC(=O)[C@H](CCCCN)NC(=O)[C@H](CO)NC(=O)[C@H](Cc1ccc(O)cc1)NC(=O)[C@H](CC(=O)O)NC(=O)[C@H](CO)NC(=O)[C@@H](NC(=O)[C@H](Cc1ccccc1)NC(=O)[C@@H](NC(=O)CNC(=O)[C@@H](NC(=O)C(C)(C)NC(=O)[C@@H](N)Cc1c[nH]cn1)[C@@H](C)CC)[C@@H](C)O)[C@@H](C)O)C(=O)N[C@@H](C)C(=O)N[C@@H](C)C(=O)N[C@@H](Cc1c[nH]cn1)C(=O)N[C@@H](CC(=O)O)C(=O)N[C@@H](Cc1ccccc1)C(=O)N[C@H](C(=O)N[C@@H](CCC(=O)O)C(=O)N[C@@H](Cc1c[nH]c2ccccc12)C(=O)N[C@@H](CC(C)C)C(=O)N[C@@H](CC(C)C)C(=O)N[C@@H](CO)C(=O)N[C@@H](C)C(N)=O)C(C)C)C(=O)O
EC50 (nM) GLP-1R, cAMP formation [1]: 0.16 nM | EC50 (nM) GluR, cAMP formation [2]: 0.74 nM | EC50 (nM) GluR, cAMP formation, earlier determination [2]: 3 nM

B2: Compound 14 (peptide)
peptide: H-H[Aib][hPhe]GTFTSDYSKYLDSK([γGlu-Palmitoyl])AAHDFVEWLLSA-NH2
SMILES: CCCCCCCCCCCCCCCC(=O)N[C@@H](CCC(=O)NCCCC[C@H](NC(=O)[C@H](CO)NC(=O)[C@H](CC(=O)O)NC(=O)[C@H](CC(C)C)NC(=O)[C@H](Cc1ccc(O)cc1)NC(=O)[C@H](CCCCN)NC(=O)[C@H](CO)NC(=O)[C@H](Cc1ccc(O)cc1)NC(=O)[C@H](CC(=O)O)NC(=O)[C@H](CO)NC(=O)[C@@H](NC(=O)[C@H](Cc1ccccc1)NC(=O)[C@@H](NC(=O)CNC(=O)[C@H](CCc1ccccc1)NC(=O)C(C)(C)NC(=O)[C@@H](N)Cc1c[nH]cn1)[C@@H](C)O)[C@@H](C)O)C(=O)N[C@@H](C)C(=O)N[C@@H](C)C(=O)N[C@@H](Cc1c[nH]cn1)C(=O)N[C@@H](CC(=O)O)C(=O)N[C@@H](Cc1ccccc1)C(=O)N[C@H](C(=O)N[C@@H](CCC(=O)O)C(=O)N[C@@H](Cc1c[nH]c2ccccc12)C(=O)N[C@@H](CC(C)C)C(=O)N[C@@H](CC(C)C)C(=O)N[C@@H](CO)C(=O)N[C@@H](C)C(N)=O)C(C)C)C(=O)O
EC50 (nM) GLP-1R, cAMP formation [1]: 3.5 nM | EC50 (nM) GluR, cAMP formation [2]: 8.9 nM

B3: Compound 15 (peptide)
peptide: H-H[Aib]WGTFTSDYSKYLDSK([γGlu-Palmitoyl])AAHDFVEWLLSA-NH2
SMILES: CCCCCCCCCCCCCCCC(=O)N[C@@H](CCC(=O)NCCCC[C@H](NC(=O)[C@H](CO)NC(=O)[C@H](CC(=O)O)NC(=O)[C@H](CC(C)C)NC(=O)[C@H](Cc1ccc(O)cc1)NC(=O)[C@H](CCCCN)NC(=O)[C@H](CO)NC(=O)[C@H](Cc1ccc(O)cc1)NC(=O)[C@H](CC(=O)O)NC(=O)[C@H](CO)NC(=O)[C@@H](NC(=O)[C@H](Cc1ccccc1)NC(=O)[C@@H](NC(=O)CNC(=O)[C@H](Cc1c[nH]c2ccccc12)NC(=O)C(C)(C)NC(=O)[C@@H](N)Cc1c[nH]cn1)[C@@H](C)O)[C@@H](C)O)C(=O)N[C@@H](C)C(=O)N[C@@H](C)C(=O)N[C@@H](Cc1c[nH]cn1)C(=O)N[C@@H](CC(=O)O)C(=O)N[C@@H](Cc1ccccc1)C(=O)N[C@H](C(=O)N[C@@H](CCC(=O)O)C(=O)N[C@@H](Cc1c[nH]c2ccccc12)C(=O)N[C@@H](CC(C)C)C(=O)N[C@@H](CC(C)C)C(=O)N[C@@H](CO)C(=O)N[C@@H](C)C(N)=O)C(C)C)C(=O)O
EC50 (nM) GLP-1R, cAMP formation [1]: 5.8 nM | EC50 (nM) GluR, cAMP formation [2]: 43 nM

B7: Compound 20 (peptide)
peptide: H-H[Aib]GGTFTSDYSKYLDSK([γGlu-Palmitoyl])AAHDFVEWLLSA-NH2
SMILES: CCCCCCCCCCCCCCCC(=O)N[C@@H](CCC(=O)NCCCC[C@H](NC(=O)[C@H](CO)NC(=O)[C@H](CC(=O)O)NC(=O)[C@H](CC(C)C)NC(=O)[C@H](Cc1ccc(O)cc1)NC(=O)[C@H](CCCCN)NC(=O)[C@H](CO)NC(=O)[C@H](Cc1ccc(O)cc1)NC(=O)[C@H](CC(=O)O)NC(=O)[C@H](CO)NC(=O)[C@@H](NC(=O)[C@H](Cc1ccccc1)NC(=O)[C@@H](NC(=O)CNC(=O)CNC(=O)C(C)(C)NC(=O)[C@@H](N)Cc1c[nH]cn1)[C@@H](C)O)[C@@H](C)O)C(=O)N[C@@H](C)C(=O)N[C@@H](C)C(=O)N[C@@H](Cc1c[nH]cn1)C(=O)N[C@@H](CC(=O)O)C(=O)N[C@@H](Cc1ccccc1)C(=O)N[C@H](C(=O)N[C@@H](CCC(=O)O)C(=O)N[C@@H](Cc1c[nH]c2ccccc12)C(=O)N[C@@H](CC(C)C)C(=O)N[C@@H](CC(C)C)C(=O)N[C@@H](CO)C(=O)N[C@@H](C)C(N)=O)C(C)C)C(=O)O
EC50 (nM) GLP-1R, cAMP formation [1]: 0.21 nM | EC50 (nM) GLP-1R, cAMP formation, earlier determination [1]: 0.89 nM | EC50 (nM) GluR, cAMP formation [2]: 26 nM

B8: Compound 13 (peptide)
peptide: H-H[Aib]LGTFTSDYSKYLDSK([γGlu-Palmitoyl])AAHDFVEWLLSA-NH2
SMILES: CCCCCCCCCCCCCCCC(=O)N[C@@H](CCC(=O)NCCCC[C@H](NC(=O)[C@H](CO)NC(=O)[C@H](CC(=O)O)NC(=O)[C@H](CC(C)C)NC(=O)[C@H](Cc1ccc(O)cc1)NC(=O)[C@H](CCCCN)NC(=O)[C@H](CO)NC(=O)[C@H](Cc1ccc(O)cc1)NC(=O)[C@H](CC(=O)O)NC(=O)[C@H](CO)NC(=O)[C@@H](NC(=O)[C@H](Cc1ccccc1)NC(=O)[C@@H](NC(=O)CNC(=O)[C@H](CC(C)C)NC(=O)C(C)(C)NC(=O)[C@@H](N)Cc1c[nH]cn1)[C@@H](C)O)[C@@H](C)O)C(=O)N[C@@H](C)C(=O)N[C@@H](C)C(=O)N[C@@H](Cc1c[nH]cn1)C(=O)N[C@@H](CC(=O)O)C(=O)N[C@@H](Cc1ccccc1)C(=O)N[C@H](C(=O)N[C@@H](CCC(=O)O)C(=O)N[C@@H](Cc1c[nH]c2ccccc12)C(=O)N[C@@H](CC(C)C)C(=O)N[C@@H](CC(C)C)C(=O)N[C@@H](CO)C(=O)N[C@@H](C)C(N)=O)C(C)C)C(=O)O
EC50 (nM) GLP-1R, cAMP formation [1]: 0.28 nM | EC50 (nM) GluR, cAMP formation [2]: 11 nM

Results, then the binder that gave them:

EC50 (nM) GLP-1R, cAMP formation [1]: 0.13 nM | EC50 (nM) GluR, cAMP formation [2]: 3 nM
B4: Compound 16 (peptide)
peptide: H-H[Aib]VGTFTSDYSKYLDSK([γGlu-Palmitoyl])AAHDFVEWLLSA-NH2
SMILES: CCCCCCCCCCCCCCCC(=O)N[C@@H](CCC(=O)NCCCC[C@H](NC(=O)[C@H](CO)NC(=O)[C@H](CC(=O)O)NC(=O)[C@H](CC(C)C)NC(=O)[C@H](Cc1ccc(O)cc1)NC(=O)[C@H](CCCCN)NC(=O)[C@H](CO)NC(=O)[C@H](Cc1ccc(O)cc1)NC(=O)[C@H](CC(=O)O)NC(=O)[C@H](CO)NC(=O)[C@@H](NC(=O)[C@H](Cc1ccccc1)NC(=O)[C@@H](NC(=O)CNC(=O)[C@@H](NC(=O)C(C)(C)NC(=O)[C@@H](N)Cc1c[nH]cn1)C(C)C)[C@@H](C)O)[C@@H](C)O)C(=O)N[C@@H](C)C(=O)N[C@@H](C)C(=O)N[C@@H](Cc1c[nH]cn1)C(=O)N[C@@H](CC(=O)O)C(=O)N[C@@H](Cc1ccccc1)C(=O)N[C@H](C(=O)N[C@@H](CCC(=O)O)C(=O)N[C@@H](Cc1c[nH]c2ccccc12)C(=O)N[C@@H](CC(C)C)C(=O)N[C@@H](CC(C)C)C(=O)N[C@@H](CO)C(=O)N[C@@H](C)C(N)=O)C(C)C)C(=O)O

EC50 (nM) GLP-1R, cAMP formation [1]: 0.09 nM | EC50 (nM) GluR, cAMP formation [2]: 3.4 nM
B5: Compound 17 (peptide)
peptide: H-H[Aib]AGTFTSDYSKYLDSK([γGlu-Palmitoyl])AAHDFVEWLLSA-NH2
SMILES: CCCCCCCCCCCCCCCC(=O)N[C@@H](CCC(=O)NCCCC[C@H](NC(=O)[C@H](CO)NC(=O)[C@H](CC(=O)O)NC(=O)[C@H](CC(C)C)NC(=O)[C@H](Cc1ccc(O)cc1)NC(=O)[C@H](CCCCN)NC(=O)[C@H](CO)NC(=O)[C@H](Cc1ccc(O)cc1)NC(=O)[C@H](CC(=O)O)NC(=O)[C@H](CO)NC(=O)[C@@H](NC(=O)[C@H](Cc1ccccc1)NC(=O)[C@@H](NC(=O)CNC(=O)[C@H](C)NC(=O)C(C)(C)NC(=O)[C@@H](N)Cc1c[nH]cn1)[C@@H](C)O)[C@@H](C)O)C(=O)N[C@@H](C)C(=O)N[C@@H](C)C(=O)N[C@@H](Cc1c[nH]cn1)C(=O)N[C@@H](CC(=O)O)C(=O)N[C@@H](Cc1ccccc1)C(=O)N[C@H](C(=O)N[C@@H](CCC(=O)O)C(=O)N[C@@H](Cc1c[nH]c2ccccc12)C(=O)N[C@@H](CC(C)C)C(=O)N[C@@H](CC(C)C)C(=O)N[C@@H](CO)C(=O)N[C@@H](C)C(N)=O)C(C)C)C(=O)O

EC50 (nM) GLP-1R, cAMP formation [1]: 0.09 nM | EC50 (nM) GluR, cAMP formation [2]: 8 nM
B6: Compound 18 (peptide)
peptide: H-H[Aib]SGTFTSDYSKYLDSK([γGlu-Palmitoyl])AAHDFVEWLLSA-NH2
SMILES: CCCCCCCCCCCCCCCC(=O)N[C@@H](CCC(=O)NCCCC[C@H](NC(=O)[C@H](CO)NC(=O)[C@H](CC(=O)O)NC(=O)[C@H](CC(C)C)NC(=O)[C@H](Cc1ccc(O)cc1)NC(=O)[C@H](CCCCN)NC(=O)[C@H](CO)NC(=O)[C@H](Cc1ccc(O)cc1)NC(=O)[C@H](CC(=O)O)NC(=O)[C@H](CO)NC(=O)[C@@H](NC(=O)[C@H](Cc1ccccc1)NC(=O)[C@@H](NC(=O)CNC(=O)[C@H](CO)NC(=O)C(C)(C)NC(=O)[C@@H](N)Cc1c[nH]cn1)[C@@H](C)O)[C@@H](C)O)C(=O)N[C@@H](C)C(=O)N[C@@H](C)C(=O)N[C@@H](Cc1c[nH]cn1)C(=O)N[C@@H](CC(=O)O)C(=O)N[C@@H](Cc1ccccc1)C(=O)N[C@H](C(=O)N[C@@H](CCC(=O)O)C(=O)N[C@@H](Cc1c[nH]c2ccccc12)C(=O)N[C@@H](CC(C)C)C(=O)N[C@@H](CC(C)C)C(=O)N[C@@H](CO)C(=O)N[C@@H](C)C(N)=O)C(C)C)C(=O)O
